B1: 14-3-3 protein sigma (Homo sapiens), P31947 (parent)
chain: MERASLIQKAKLAEQAERYEDMAAFMKGAVEKGEELSCEERNLLSVAYKNVVGGQRAAWRVLSSIEQKSNEEGSEEKGPEVREYREKVETELQGVCDTVLGLLDSHLIKEAGDAESRVFYLKMKGDYYRYLAEVATGDDKKRIIDSARSAYQEAMDISKKEMPPTNPIRLGLALNFSVFHYEIANSPEEAISLAKTTFDEAMADLHTLSEDSYKDSTLIMQLLRDNLTLWTADNAGEEGGEAPQEPQS
partner: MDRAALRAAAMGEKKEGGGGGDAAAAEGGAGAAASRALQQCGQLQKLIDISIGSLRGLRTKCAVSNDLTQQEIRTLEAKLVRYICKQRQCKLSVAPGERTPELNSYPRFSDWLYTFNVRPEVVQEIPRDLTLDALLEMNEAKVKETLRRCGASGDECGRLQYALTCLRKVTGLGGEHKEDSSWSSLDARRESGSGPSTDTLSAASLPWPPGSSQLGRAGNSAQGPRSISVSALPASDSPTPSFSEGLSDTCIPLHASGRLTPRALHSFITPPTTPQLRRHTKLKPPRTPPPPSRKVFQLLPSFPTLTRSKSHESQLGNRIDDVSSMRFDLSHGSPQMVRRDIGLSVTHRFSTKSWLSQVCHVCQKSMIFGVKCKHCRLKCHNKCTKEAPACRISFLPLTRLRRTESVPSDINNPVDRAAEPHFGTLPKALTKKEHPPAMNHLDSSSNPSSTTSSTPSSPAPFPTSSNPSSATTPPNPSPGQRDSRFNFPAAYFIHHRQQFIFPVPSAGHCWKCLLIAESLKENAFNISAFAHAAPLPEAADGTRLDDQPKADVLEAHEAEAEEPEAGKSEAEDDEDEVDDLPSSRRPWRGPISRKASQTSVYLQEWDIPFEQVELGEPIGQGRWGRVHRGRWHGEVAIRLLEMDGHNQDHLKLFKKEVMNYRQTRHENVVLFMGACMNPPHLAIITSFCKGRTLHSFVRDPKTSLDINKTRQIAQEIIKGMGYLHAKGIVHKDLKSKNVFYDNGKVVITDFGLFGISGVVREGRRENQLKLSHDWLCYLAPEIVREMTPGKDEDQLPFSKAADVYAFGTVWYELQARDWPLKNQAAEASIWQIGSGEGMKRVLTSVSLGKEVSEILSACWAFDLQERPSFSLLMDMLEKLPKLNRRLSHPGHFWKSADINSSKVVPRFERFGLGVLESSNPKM
B2: 14-3-3 protein sigma (Homo sapiens), P31947 (parent)
chain: B1 chain
partner: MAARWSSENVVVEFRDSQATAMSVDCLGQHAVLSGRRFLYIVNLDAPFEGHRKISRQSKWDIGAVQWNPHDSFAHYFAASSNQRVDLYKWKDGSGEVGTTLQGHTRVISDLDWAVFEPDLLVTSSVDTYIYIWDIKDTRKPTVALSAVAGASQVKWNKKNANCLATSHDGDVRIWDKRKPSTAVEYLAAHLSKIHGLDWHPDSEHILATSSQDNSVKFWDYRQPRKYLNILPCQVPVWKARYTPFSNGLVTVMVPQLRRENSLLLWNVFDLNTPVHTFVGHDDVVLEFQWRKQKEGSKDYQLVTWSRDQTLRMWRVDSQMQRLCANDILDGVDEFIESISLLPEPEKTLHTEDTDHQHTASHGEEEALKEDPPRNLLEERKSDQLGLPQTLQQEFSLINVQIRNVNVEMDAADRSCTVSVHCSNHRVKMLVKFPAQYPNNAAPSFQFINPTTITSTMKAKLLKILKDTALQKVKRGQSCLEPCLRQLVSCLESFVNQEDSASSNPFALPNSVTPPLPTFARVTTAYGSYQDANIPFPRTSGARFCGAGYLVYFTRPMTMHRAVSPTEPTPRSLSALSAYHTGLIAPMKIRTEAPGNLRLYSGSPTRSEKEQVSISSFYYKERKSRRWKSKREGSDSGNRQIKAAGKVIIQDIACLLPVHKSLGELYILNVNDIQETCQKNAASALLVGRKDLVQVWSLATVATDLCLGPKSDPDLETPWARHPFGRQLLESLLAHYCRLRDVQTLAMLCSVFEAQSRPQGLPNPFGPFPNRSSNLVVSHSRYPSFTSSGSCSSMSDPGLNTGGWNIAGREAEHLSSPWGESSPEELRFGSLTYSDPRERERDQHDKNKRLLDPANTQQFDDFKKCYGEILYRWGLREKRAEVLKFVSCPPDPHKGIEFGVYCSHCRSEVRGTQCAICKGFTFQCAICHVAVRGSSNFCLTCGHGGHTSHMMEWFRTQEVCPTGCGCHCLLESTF
B3: 14-3-3 protein sigma (Homo sapiens), P31947 (parent)
chain: B1 chain
partner: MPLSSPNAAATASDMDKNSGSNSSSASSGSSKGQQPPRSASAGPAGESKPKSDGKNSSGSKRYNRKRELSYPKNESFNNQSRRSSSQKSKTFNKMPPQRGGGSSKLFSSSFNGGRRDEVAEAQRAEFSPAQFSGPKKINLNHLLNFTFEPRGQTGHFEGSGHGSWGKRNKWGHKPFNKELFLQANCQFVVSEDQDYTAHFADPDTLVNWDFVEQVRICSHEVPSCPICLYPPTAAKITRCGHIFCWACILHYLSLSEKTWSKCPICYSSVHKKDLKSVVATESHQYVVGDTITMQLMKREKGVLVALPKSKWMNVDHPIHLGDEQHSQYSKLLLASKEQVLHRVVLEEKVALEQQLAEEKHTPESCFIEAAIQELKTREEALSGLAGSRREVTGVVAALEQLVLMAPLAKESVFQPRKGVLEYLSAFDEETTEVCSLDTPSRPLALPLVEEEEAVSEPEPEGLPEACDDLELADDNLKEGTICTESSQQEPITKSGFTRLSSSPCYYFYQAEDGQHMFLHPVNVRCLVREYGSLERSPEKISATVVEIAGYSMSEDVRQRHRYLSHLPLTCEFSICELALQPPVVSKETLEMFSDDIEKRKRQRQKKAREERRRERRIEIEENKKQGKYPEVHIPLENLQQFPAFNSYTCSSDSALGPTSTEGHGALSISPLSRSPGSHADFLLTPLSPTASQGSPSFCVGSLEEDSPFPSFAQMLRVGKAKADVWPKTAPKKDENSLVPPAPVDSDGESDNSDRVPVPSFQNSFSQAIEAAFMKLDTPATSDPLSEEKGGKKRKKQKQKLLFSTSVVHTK
B4: 14-3-3 protein sigma (Homo sapiens), P31947 (parent)
chain: B1 chain
partner: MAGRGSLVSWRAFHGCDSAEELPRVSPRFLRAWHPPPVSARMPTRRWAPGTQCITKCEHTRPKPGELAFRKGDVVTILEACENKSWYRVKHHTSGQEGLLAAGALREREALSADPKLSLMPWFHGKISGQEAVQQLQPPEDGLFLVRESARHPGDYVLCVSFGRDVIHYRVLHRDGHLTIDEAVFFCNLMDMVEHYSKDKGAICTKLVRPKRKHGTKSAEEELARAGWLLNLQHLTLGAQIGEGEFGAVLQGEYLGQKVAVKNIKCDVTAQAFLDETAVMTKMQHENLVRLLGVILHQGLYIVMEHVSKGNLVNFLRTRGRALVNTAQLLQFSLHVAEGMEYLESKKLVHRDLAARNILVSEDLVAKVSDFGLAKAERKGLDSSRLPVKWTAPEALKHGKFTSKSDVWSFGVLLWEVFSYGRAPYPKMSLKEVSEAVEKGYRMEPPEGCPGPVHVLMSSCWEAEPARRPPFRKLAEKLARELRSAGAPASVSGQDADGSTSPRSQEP
B5: 14-3-3 protein sigma (Homo sapiens), P31947 (parent)
chain: B1 chain
partner: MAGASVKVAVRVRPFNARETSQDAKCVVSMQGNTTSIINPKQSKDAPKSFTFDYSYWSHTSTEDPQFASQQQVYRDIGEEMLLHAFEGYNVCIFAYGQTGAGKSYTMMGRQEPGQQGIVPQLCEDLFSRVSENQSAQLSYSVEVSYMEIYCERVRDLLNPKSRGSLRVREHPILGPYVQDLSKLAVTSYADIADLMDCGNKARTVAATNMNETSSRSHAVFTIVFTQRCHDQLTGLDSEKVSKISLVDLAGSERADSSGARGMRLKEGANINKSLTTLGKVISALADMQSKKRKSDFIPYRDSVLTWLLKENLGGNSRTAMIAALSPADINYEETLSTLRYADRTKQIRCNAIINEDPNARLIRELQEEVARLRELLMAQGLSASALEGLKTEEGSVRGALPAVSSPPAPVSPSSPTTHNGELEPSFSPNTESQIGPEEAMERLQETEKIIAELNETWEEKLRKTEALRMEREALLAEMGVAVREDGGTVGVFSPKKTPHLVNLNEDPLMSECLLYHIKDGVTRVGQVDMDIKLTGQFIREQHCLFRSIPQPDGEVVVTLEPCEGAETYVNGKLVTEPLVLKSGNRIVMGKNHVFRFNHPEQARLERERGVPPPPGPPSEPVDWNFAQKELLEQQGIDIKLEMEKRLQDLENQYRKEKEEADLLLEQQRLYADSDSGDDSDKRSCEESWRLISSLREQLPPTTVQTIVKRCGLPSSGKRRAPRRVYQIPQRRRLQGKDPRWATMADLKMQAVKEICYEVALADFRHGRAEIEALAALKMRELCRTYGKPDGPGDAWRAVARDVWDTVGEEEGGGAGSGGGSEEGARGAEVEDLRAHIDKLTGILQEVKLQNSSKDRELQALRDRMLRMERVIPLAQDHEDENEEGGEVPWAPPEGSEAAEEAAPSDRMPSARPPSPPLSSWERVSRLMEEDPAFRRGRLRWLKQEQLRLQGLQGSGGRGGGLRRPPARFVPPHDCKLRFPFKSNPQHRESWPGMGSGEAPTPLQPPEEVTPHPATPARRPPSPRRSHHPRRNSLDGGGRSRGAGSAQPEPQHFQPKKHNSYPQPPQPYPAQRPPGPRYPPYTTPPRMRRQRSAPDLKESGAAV

Variants of: B1
Settings: with ksr1_human KSR1, Q8IVT5

effect of a mutation on the interaction	Variant
decreasing interaction strength	K49E;R56E;V178D

Variants of: B2
Settings: with wdr59_human WDR59, Q6PJI9

effect of a mutation on the interaction	Variant
decreasing interaction strength	K49E;R56E;V178D

Variants of: B3
Settings: with rnf10_human RNF10, Q8N5U6

effect of a mutation on the interaction	Variant
decreasing interaction strength	K49E;R56E;V178D

Variants of: B4
Settings: with matk_human MATK

effect of a mutation on the interaction	Variant
decreasing interaction strength	K49E;R56E;V178D

Variants of: B5
Settings: with kif1c_human KIF1C

effect of a mutation on the interaction	Variant
decreasing interaction strength	K49E;R56E;V178D
